Test results reported in patent publication US9976134B2, “Thermolysin variants” (Danisco US Inc., priority 2007, dated 2018).
Substitutions are numbered along the chain they refer to. Names may count otherwise.

B1: Q273A: single-substitution thermolysin variant (SEQ ID NO:3 numbering) (protein, listed as Geobacillus caldoproteolyticus)
chain: ITGTSTVGVGRGVLGDQKNINTTYSTYYYLQDNTRGNGIFTYDAKYRTTLPGSLWADADNQFFASYDAPAVDAHYYAGVTYDYYKNVHNRLSYDGNNAAIRSSVHYSQGYNNAFWNGSQMVYGDGDGQTFIPLSGGIDVVAHELTHAVTDYTAGLIYQNESGAINEAISDIFGTLVEFYANKNPDWEIGEDVYTPGISGDSLRSMSDPAKYGDPDHYSKRYTGTQDNGGVHINSGIINKAAYLISQGGTHYGVSVVGIGRDKLGKIFYRALTAYLTPTSNFSQLRAAAVQSATDLYGSTSQEVASVKQAFDAVGVK
B2: N280I: single-substitution thermolysin variant (SEQ ID NO:3 numbering) (protein, listed as Geobacillus caldoproteolyticus)
chain: B1 chain with A273Q, N280I
B3: Q273T: single-substitution thermolysin variant (SEQ ID NO:3 numbering) (protein, listed as Geobacillus caldoproteolyticus)
chain: B1 chain with A273T
B4: Q273W: single-substitution thermolysin variant (SEQ ID NO:3 numbering) (protein, listed as Geobacillus caldoproteolyticus)
chain: B1 chain with A273W
B5: N280L: single-substitution thermolysin variant (SEQ ID NO:3 numbering) (protein, listed as Geobacillus caldoproteolyticus)
chain: B1 chain with A273Q, N280L
B6: T278N: single-substitution thermolysin variant (SEQ ID NO:3 numbering) (protein, listed as Geobacillus caldoproteolyticus)
chain: B1 chain with A273Q, T278N
B7: T278H: single-substitution thermolysin variant (SEQ ID NO:3 numbering) (protein, listed as Geobacillus caldoproteolyticus)
chain: B1 chain with A273Q, T278H
B8: N280E: single-substitution thermolysin variant (SEQ ID NO:3 numbering) (protein, listed as Geobacillus caldoproteolyticus)
chain: B1 chain with A273Q, N280E
B9: T278S: single-substitution thermolysin variant (SEQ ID NO:3 numbering) (protein, listed as Geobacillus caldoproteolyticus)
chain: B1 chain with A273Q, T278S
B10: T278Y: single-substitution thermolysin variant (SEQ ID NO:3 numbering) (protein, listed as Geobacillus caldoproteolyticus)
chain: B1 chain with A273Q, T278Y
B11: T278C: single-substitution thermolysin variant (SEQ ID NO:3 numbering) (protein, listed as Geobacillus caldoproteolyticus)
chain: B1 chain with A273Q, T278C
B12: Q273N: single-substitution thermolysin variant (SEQ ID NO:3 numbering) (protein, listed as Geobacillus caldoproteolyticus)
chain: B1 chain with A273N

Test: Stability assay in 25% TIDE 2X detergent with DTPA (residual Abz-AGLA-Nba protease activity)
Assay type: physicochemical
Conditions: 60 min at 32°C; variant residual AGLA activity divided by wild-type residual activity
Procedure: The stability of thermolysin and variants thereof was measured after incubation under defined conditions in the presence of 25% TIDE® 2× detergent. The initial and residual activity was determined.
MTPs were obtained from Costar (type 9017) and from Greiner (black plate, type 655076). Test Method Unstressed Conditions:
First, 20 μl thermolysin containing culture supernatant was diluted with 180 μl MES assay buffer. Then, 20 μl diluted supernatant was diluted further with 180 μl MES assay buffer. Subsequently 10 μl of this dilution was transferred into 190 μl AGLA-substrate solution in a pre-warmed plate (Greiner 655076) at 25° C. Any air bubbles present were blown away and the plate was measured according to the AGLA protease assay protocol described below.
First, 20 μl of culture supernatant was diluted with 180 μl 27.5% TIDE®+detergent solution and placed in the iEMS shaker. The plate covered with a plate seal was incubated for a total of 60 minutes at 32° C. at 900 rpm. In addition, 20 μl of culture supernatant was diluted with 180 μl 27.5% TIDE®−solution and placed in the iEMS shaker. This plate covered with a plate seal was incubated for a total of 180 minutes at 50° C. at 900 rpm.
Subsequently after the respective incubations, 20 μl of either of these solutions were diluted with 180 μl MES assay buffer and 10 μl of this dilution were diluted with 190 μl AGLA-substrate solution in a pre-warmed plate (Greiner 655076) at 25° C.
Fluorescence measurements were taken at excitation of 350 nm and emission of 420 nm. The spectrofluorometer software calculated the reaction rates (=slope) of the increase in fluorescence for each well to a linearly regressed line of (milli-) RFU/min. The ratio of the residual and initial AGLA activity was used to express the 25% TIDE® 2× stability as follows: Percentage of residual activity=[slope of stressed]*100/[slope of unstressed]
For each sample (thermolysin and variants thereof) the performance index was calculated by dividing the residual activity of the variant by the residual activity of thermolysin. The performance index compared the stability of the variant and the standard thermolysin enzyme (e.g., wild type or parental enzyme), determined under the same conditions.
In these experiments, the liberation of Abz-AG by protease cleavage of Abz-AGLA-Nba was monitored by fluorescence spectrometry (Ex. 350/Em. 420). The rate of appearance of Abz-AG was a measure of proteolytic activity.
The Abz-AGLA-Nba assay solution was prepared by adding 1 ml of the Abz-AGLA-Nba stock to 19 ml MES substrate buffer and mixed well for at least 2 minutes. Subsequently the thermolysin or variants thereof containing culture supernatants were diluted with MES assay buffer to a concentration of 1-6 μg protein per ml.
The assay was performed by adding 10 μl of diluted protease solution to each well, followed by the addition of 190 μl Abz-AGLA-Nba assay solution that was pre-equilibrated for at least 15 minutes at 25° C. The solutions were vigorously mixed, and the liberation of Abz-AG by protease cleavage of Abz-AGLA-Nba was monitored by fluorescence spectrometry at 25° C. in kinetic mode with excitation set at 350 nm and emission set at 420 nm. The rate of appearance of Abz-AG was a measure of proteolytic activity in the samples. The protease activity was expressed as RFU (relative fluorescence units·min^−1).
As described in Example 1, the stability of thermolysin variants was measured by determining the AGLA activity before and after incubation in the presence of TIDE® 2× heavy duty liquid (HDL) detergent at an elevated temperature. The tables contain the relative stability values compared to wild-type thermolysin, which is the quotient of the variant residual activity divided by the wild-type residual activity. A value greater than one indicates higher stability in the presence of detergent. […]

Molecule | PI (relative stability), 25% TIDE 2X with DTPA
B1 | 1.03
B2 | 1.16
B3 | 1.08
B4 | 1.05
B5 | 1.21
B6 | 1.07
B7 | 1.07
B8 | 1.13
B9 | 1.08
B10 | 1.05
B11 | 1.05
B12 | 1.25
